Experimental data taken from PMC7397868, “System-wide analyses of the fission yeast poly(A)+ RNA interactome reveal insights into organization and function of RNA–protein complexes”.

Target: T1, Cdk9;Pch1 (Schizosaccharomyces …, UniProt Q96WV9;O74627 1-591;1-342, |)
T1 sequence 1: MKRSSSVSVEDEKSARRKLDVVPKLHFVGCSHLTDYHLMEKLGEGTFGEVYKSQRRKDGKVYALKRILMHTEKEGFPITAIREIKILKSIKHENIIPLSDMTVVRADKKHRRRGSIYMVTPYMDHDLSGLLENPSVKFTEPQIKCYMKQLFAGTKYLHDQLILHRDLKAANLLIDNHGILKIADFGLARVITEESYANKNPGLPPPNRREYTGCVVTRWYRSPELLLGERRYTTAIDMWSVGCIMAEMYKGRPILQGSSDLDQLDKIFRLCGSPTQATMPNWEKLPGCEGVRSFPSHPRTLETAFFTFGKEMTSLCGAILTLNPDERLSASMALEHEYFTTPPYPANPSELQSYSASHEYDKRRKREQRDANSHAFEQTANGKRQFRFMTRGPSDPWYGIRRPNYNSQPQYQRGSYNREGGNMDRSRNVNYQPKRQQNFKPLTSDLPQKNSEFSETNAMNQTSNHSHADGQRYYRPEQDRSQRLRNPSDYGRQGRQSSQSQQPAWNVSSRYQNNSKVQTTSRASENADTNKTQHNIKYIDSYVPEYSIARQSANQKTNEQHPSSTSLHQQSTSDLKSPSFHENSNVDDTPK
T1 sequence 2: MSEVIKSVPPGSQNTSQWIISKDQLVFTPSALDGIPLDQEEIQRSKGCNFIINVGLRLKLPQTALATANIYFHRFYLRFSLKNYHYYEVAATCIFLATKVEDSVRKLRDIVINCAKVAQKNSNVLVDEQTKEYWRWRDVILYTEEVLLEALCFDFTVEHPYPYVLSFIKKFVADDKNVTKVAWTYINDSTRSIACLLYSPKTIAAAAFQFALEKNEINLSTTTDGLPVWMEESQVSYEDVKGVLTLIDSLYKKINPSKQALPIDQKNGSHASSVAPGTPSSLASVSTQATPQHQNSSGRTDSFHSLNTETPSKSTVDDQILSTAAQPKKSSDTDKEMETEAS
Assay: fluorescence anisotropy; 8 nM RNA; four-parameter logistic fit with Hill slope; 20 mM HEPES 7.5, 150 mM NaCl, 0.5 mM MgCl2, 0.5 mM Mg(OAc)2, 1 mM 2-mercaptoethanol; 20 min at RT, read at 25 C
Details: protein: recombinant;recombinant; tags: none stated;N-terminal His-TEV, His-tag cleaved with TEV; copies: 1;1; single strand; heated 5 min at 95 C before use

AUUAGUAAAAUAUAUGCAUAAAGACCAGGC (ssRNA) [generic FAM-labeled RNA oligo]
Kd: 47 ± 1.7 nM
